Experimental data reported in patent US20130266566A1 (AbbVie / Abbott, published 2013).

T1: rat PAI-1 (rat, UniProt P20961 24-402)
T1 sequence: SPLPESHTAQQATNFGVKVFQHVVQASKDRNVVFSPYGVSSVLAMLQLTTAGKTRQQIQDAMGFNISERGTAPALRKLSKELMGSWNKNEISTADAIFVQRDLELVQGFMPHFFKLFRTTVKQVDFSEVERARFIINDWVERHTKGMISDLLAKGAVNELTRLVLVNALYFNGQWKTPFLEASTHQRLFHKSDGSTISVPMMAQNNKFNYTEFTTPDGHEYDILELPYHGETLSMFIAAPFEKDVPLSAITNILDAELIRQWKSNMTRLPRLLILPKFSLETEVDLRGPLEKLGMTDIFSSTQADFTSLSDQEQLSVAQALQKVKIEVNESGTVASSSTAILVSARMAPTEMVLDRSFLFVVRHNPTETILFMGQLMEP

T2: mouse PAI-1 (mouse, UniProt P22777 24-401)
T2 sequence: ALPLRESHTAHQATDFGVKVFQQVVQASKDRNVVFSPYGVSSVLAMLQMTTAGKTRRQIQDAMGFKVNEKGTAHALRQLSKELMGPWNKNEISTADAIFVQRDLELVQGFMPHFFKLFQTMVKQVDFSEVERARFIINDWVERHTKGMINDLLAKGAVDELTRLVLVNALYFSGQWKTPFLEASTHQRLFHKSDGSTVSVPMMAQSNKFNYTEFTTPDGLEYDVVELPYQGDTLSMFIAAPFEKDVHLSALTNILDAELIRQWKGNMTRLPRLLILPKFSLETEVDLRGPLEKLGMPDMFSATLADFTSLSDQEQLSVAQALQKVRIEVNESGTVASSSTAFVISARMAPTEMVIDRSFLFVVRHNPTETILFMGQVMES

B1: Antibody 02 IgG1, not germlined (antibody, V domains shown)
VH: QVQLVQSGAEVKKPGSSVKVSCKASGGTFSSYAISWVRQAPGQGLEWMGGIIPTFGTANYAQKFQGRVTITADESTSTAYMELSSLRSEDTAVYYCAREKRQWLEGHFDYWGRGTLVTVSS
VL: DIQMTQSPSTLSASVGDRVTITCRASEGIYHSLAWYQQKPGKAPKLLIYKASSLASGVPSRFSGSGSGTEFTLTISSLQPDDFATYYCQQYSDYPLTFGGGTKVEIK
B2: Antibody 01 IgG1, not germlined (antibody, V domains shown)
VH: QVQLVQSGAEVKKPGSSVKVSCKASGGTFSSYAISWVRQAPGQGLEWMGGIIPIFGTANYAQKFQGRVTITADESTSTAYMELSSLRSEDTAVYYCAREKRQWLEGHFDYWGRGTLVTVSS
VL: DIQMTQSPSTLSASVGDRVTITCRASEGIYRSLAWYQQKPGKAPKLLIYKASSLASGVPSRFSGSGSGTEFTLTISSLQPDDFATYYCQQYSNYPLTFGGGTKVEIK
B3: Antibody 11 scFv (scFv)
chain: QVQLQQSGAEVKKPGSSVKVSCKASGGTFSSYAISWMRQAPGQGLEWMGGIIPIFGTANYAQKFQGRVTITADESTSTAYMELSGLRSEDTAVYYCAREKRQWLEGHFDYWGRGTPVTVSSDIQMIQSPSFLSASTGDRVTITCQASEGIYHELAWYQQKPGKAPKLLIYRASSLASGAPSRFSGSGSGTDFTLTISSLQPDDFATYYCQQYSNYPLTFGGGTKLEIK
B4: Antibody 18 scFv (scFv)
chain: QVQLQQSGAEVKKPGSSVKVSCKASGGTFSSYAISWVRQAPGQGLEWMGGIIPTFGTANYAQKLQGRVTITADESTSTAYMELSGLRSEDTAVYYCAREKRQWLEGHFDYWGRGTPVTVSSDIQMTQSPSFLSASIGDRVTITCRASEGIYHALAWYQQKPGKAPKLLIYRASSLASGAPSRFSGSGSGTDFTLTISSLQPDDFATYYCQQYSNYPLTFGGGTKLEIK
B5: Antibody 24 scFv (scFv)
chain: QVQLQQSGAEVKKPGSSVKVSCKASGGTFSSYAISWVRQAPGQGLEWMGGIIPTFVTANYAQKFQGRVSITADESTSTAYMELSGLRSEDTAVYYCAREKRQWLEGHFDYWGRGTPVTVSSDIQMTQSPSFLSASIGDRVTITCRASEGIYHALAWYQQKPGKAPKLLIYRASSLASGAPSRFSGSGSGTDFTLTISSLQPDDFATYYCQQYSNYPLTFGGGTKLEIK
B6: Antibody 17 scFv (scFv)
chain: QVQLQQSGAEVKKPGSSVKVSCKASGGTFSSYAISWVRQAPGQGLEWMGGIIPTFGTANYAQKFQGRVTITADESTSTAYMELSGLRSEDTAVYYCAREKRQWLEGHFDYWGRGTPVTVSSDIQMTQSPSFLSASIGDRVTITCRASEGIYHELAWYQQKPGKAPKLLIYRASSLASGAPSRFSGSGSGTDFTLTISSLQPDDFATYYCQQYSNYPLTFGGGTKLEIK
B7: Antibody 21 scFv (scFv)
chain: PVQLQQSGAEVKKPGSSVKVSCKASGGTFSSYAISWVRQAPGQGLEWMGGIIPTFGTANYAQKFQGRVTITADESTSTAYMELSGLRSEDTAVYYCAREKRQWLEGHFDYWGRGTPVTVSSDIQMAQSPSFLSASIGDRVTITCRASEGIYHNLAWYQQKPGKAPKLLIYRASSLASGAPSRFSGSGSGTDFTLTISSLQPDDFATYYCQQYSNYPLTFGGGTKLEIK
B8: Antibody 25 scFv (scFv)
chain: QVQLQQSGAEVKKPGSSVKVSCKASGGTFSSYAISWVRQAPGQGLEWMGGIIPTFGTANYAQKFQGRVTITADESTSTAYMELSGLRSEDTAVYYCARERRQWLEGHFDYWGQGTPVTVSSDIQMTQSPSFLSASIGDRVTITCRASESIYHELAWYQQKPGKAPKLLIYKASSLASGAPSRFSGSGSGTAFTLTISSLQPDDFATYYCQQYSNYPLTFGGGTKLEIK
B9: Antibody 23 scFv (scFv)
chain: QVQLQQSGAEVKKPGSSVKVSCKASGGTFSSYAISWVRQAPGQGLEWMGGIIPTFGTANYAQKFQSRVTITADESTSTAYMELSGLRSEDTAVYYCAREKRQWLEGHFDYWGRGTPVTVSSDIQMTQSPSFLSASIGDRVTITCRASEGIYHSLAWYQQKPGKAPKLLIYRASSLASGAPSRFSGSGSGTDFTLTISSLQPDDFATYYCQQYSNYPLTFGGGTKLEIK
B10: Antibody 12 scFv (scFv)
chain: QVQLQQSGAEVKKPGSSVKVSCKASGGTFSSYAISWVRQAPGQGLEWMGGIIPTFPTANYAQKFQGRVTITADESTSTAYMELSGLRSEDTAVYYCAREKRQWLEGHFDYWGRGTPVTVSSDIQMTQSPSFLSASIGDRVTITCRASEGIYHNLAWYQQKPGKAPKLLIYRASSLASGAPSRFSGSGSGTDFTLTISSLQPDDFATYYCQQYSNYPLTFGGGTKLEIK
B11: Antibody 13 scFv (scFv)
chain: QVQLQQSGAEVKKPGSSVKVSCKASGGTFSSYAISWVRQAPGQGLEWMGGIIPTFGTANYAQKFQGRVTITADESTSTAYMELSDLRSEDTAVYYCAREKRQWLEGHFDYWGRGTPVTVSSDIQMTQSPSFLSASIGDRVTITCRASEGIYHSLAWYQQKPGKAPKLLIYRASSLASGAPSRFSGSGSGTDFTLTISSLQPDDFATYYCQQYSNYPLTFGGGTKLEIK
B12: Antibody 19 scFv (scFv)
chain: QVQLQQSGAEVKKPGSSVKVSCKASGGTFSSYAISWVRQAPGQGLEWMGGIIPIFDTANYAQKFQGRVTITADESTSTAYMELSGLRSEDTAVYYCARERRQWLEGHFDYWGRGTPVTVSSDIRMTQSPSFLSASIGDRVTITCRASEGIYHELAWYQQKPGKAPKLLIYRASSLASGAPSRFSGSGSGTEFTLTISSLQPDDFATYYCQQYSNYPLTFGGGTKLEIK
B13: Antibody 22 scFv (scFv)
chain: QVQLQQSGAEVKKPGSSVKVSCKASGGTFSGYAISWVRQAPGQGLEWMGGIIPTFGTANYSQKFQGRVTITADESTSTAYMELSGLRSEDTAVYYCAREKRQWLEGHFDYWGRGTPVTVSSDIQMTQSLSFLSASIGDRVTITCRASEGIYHALAWYQQKPGKAPKLLIYRASSLASGAPSRFSGSGSGTDFTLTISSLQPDDFATYYCQQYSNYPLTFGGGTKLEIK

Tests used:
Test in all cases: cell-based or functional assay
rat PAI-1 = biological target: T1, rat PAI-1
mouse PAI-1 = biological target: T2, mouse PAI-1
cynomolgus PAI-1 = cynomolgus PAI-1 (cynomolgus, UniProt P05121 24-402 (human entry), limits assumed)
[1] = biological target: active human PAI-1, recombinant, wild-type, non-glycosylated (E. coli) (human, UniProt P05121 24-402)

| Binder | Chromogenic IC50 ratio rat/human (rat PAI-1) [fold] | Chromogenic IC50 ratio mouse/human (mouse PAI-1) [fold] | Chromogenic IC50 ratio cyno/human (cynomolgus PAI-1) [fold] | Chromogenic (IC50 in nM) cyno (cynomolgus PAI-1) [nM] | Chromogenic (IC50 in nM) rat (rat PAI-1) [nM] | Chromogenic (IC50 in nM) human [1] [nM] | Chromogenic (IC50 in nM) mouse (mouse PAI-1) [nM] |
| --- | --- | --- | --- | --- | --- | --- | --- |
| B1 | 317 | 104 |  |  |  |  |  |
| B2 | 66.2 | 20 | 0.4 |  |  |  |  |
| B3 | 0.6 | 0.3 | 0.4 | 43.8 | 59.5 | 102 | 33.6 |
| B4 |  | 255 | 0.4 | 0.5 |  |  | 319 |
| B5 | 39.3 | 43.3 | 0.3 | 1.1 | 127 | 3.2 | 140 |
| B6 | 0.3 | 0.4 | 0.6 | 41.5 | 24.9 | 71.5 | 26.2 |
| B7 | 12 | 7.9 | 0.4 | 1.6 | 49.2 | 4.1 | 32.2 |
| B8 | 24.6 | 13.1 | 0.4 | 4.6 | 322 | 13.1 | 172 |
| B9 | 229 | 229 | 0.3 | 0.5 | 376 | 1.6 | 376 |
| B10 | 34.4 | 12.2 | 0.3 | 0.6 | 78.2 | 2.3 | 27.8 |
| B11 | 48.6 | 85.8 | 0.4 | 1.2 | 140 | 2.9 | 247 |
| B12 | 0.3 | 0.2 | 0.4 | 10.8 | 7.9 | 26 | 6.4 |
| B13 | 81.2 | 82.6 | 0.3 | 1.5 | 406 | 5 | 413 |
